Source: paper PMC3375223, “Caspase Inhibitors of the P35 Family Are More Active When Purified from Yeast than Bacteria” (PLoS ONE, 2012)
Several values for one entry are separate records, joined by “and”; a condition that tells them apart may be missing. Equal values may be shown once.

B1: MaviP35-FLAG purified from Escherichia coli (natural protein)
chain: CVIFPVEIDVSQTVIKDCQVNKQTRELVYINKIMNIELTKPVLMMFNISGPIKSVTRKNNNLRDEIKSEIDKQFDQLERDHSTQFDGGHCIKYFKDEHYSISCQSGNVLKSKFEKILKSHGYTDEKSIEAYKKYCLPKLVDEQNNYYVAVCVLKPGFEKGSNQVLSFEYNPIGNKVIVPFAHEINDTGLYEYDAAAYVDNVKFDGEQQFEKFVQSLTLPSAYDDEEVLYYNETSENKRMMYKALEFKTKSCWGKFEWDYWKIFCNGFIYDEKLKVLYVKLHNVTSRVNNNIILNID
modifications: N-acetylated amino terminus on 24% of the protein
notes: MaviP35, the P35 orthologue of Maruca vitrata MNPV; full length protein lacking the initiating methionine (by mass spectrometry); expressed from pET23a-MaviP35-FLAG; Same coding region as m2 (excised from pGALL-(HIS3)-MaviP35-FLAG); the host differs; also called bacterially purified MaviP35; bacterially-produced MaviP35; source: E. coli BL21-(DE3)-pLysS, purified (Anti-FLAG M2-agarose, FLAG …)
B2: MaviP35-FLAG purified from Saccharomyces cerevisiae (natural protein)
chain: B1 chain
modifications: N-acetylated amino terminus on 12% of the protein
notes: MaviP35, the P35 orthologue of Maruca vitrata MNPV; full length protein lacking the initiating methionine (by mass spectrometry); expressed from pGALL-(HIS3)-MaviP35-FLAG; also called yeast-purified MaviP35; yeast-isolated MaviP35; source: gel filtration for some experiments; not shown: FLAG, C-terminal, kept
B3: AcP35-FLAG purified from Saccharomyces cerevisiae (natural protein)
chain: CVIFPVEIDVSQTIIRDCQVDKQTRELVYINKIMNTQLTKPVLMMFNISGPIRSVTRKNNNLRDRIKSKVDEQFDQLERDYSDQMDGFHDSIKYFKDEHYSVSCQNGSVLKSKFAKILKSHDYTDKKSIEAYEKYCLPKLVDERNDYYVAVCVLKPGFENGSNQVLSFEYNPIGNKVIVPFAHEINDTGLYEYDVVAYVDSVQFDGEQFEEFVQSLILPSSFKNSEKVLYYNEASKNKSMIYKALEFTTESSWGKSEKYNWKIFCNGFIYDKKSKVLYVKLHNVTSALNKNVILNTIK
modifications: N-acetylated amino terminus on 13% of the protein

Legend:
[1] = target: the molecule itself; test: SEC; Superdex S200 on an ÄKTA purifier, 0.6 ml/min, 20 mM Tris pH 7.4, 50 mM NaCl; sizes by elution against BioRad gel filtration standard
[2] = target: the molecule itself; test: cross-linking; purified FLAG-tagged MaviP35 incubated in 5 µM BMH for 30 min at room temperature, boiled in loading dye with 5% β-mercaptoethanol, SDS-PAGE and anti-FLAG immunoblot; oligomer sizes by migration against markers
[3] = target: the molecule itself; test: AUC; sedimentation velocity of gel filtration fractions (yeast 111–215 kDa, bacterial 89–138 kDa), 20°C, PBS, 40,000 rpm, 230 nm; 0.28 and 0.56 µM bacterial fractions, 1.95, 2.23 and 1.39 µM yeast fractions; c(s) and c(M) fits in SEDFIT
[4] = target: caspase 3 (human) (UniProt P42574); test: inhibition of caspase activity on a fluorogenic peptide, inhibition constants by a competitive model; graded concentrations of P35 protein, 30 nM caspase 3, 100 µM Ac-DEVD-AFC; constants of the yeast-purified proteins taken from ref. 22
Sequence of caspase 3 (human) (P42574 whole entry): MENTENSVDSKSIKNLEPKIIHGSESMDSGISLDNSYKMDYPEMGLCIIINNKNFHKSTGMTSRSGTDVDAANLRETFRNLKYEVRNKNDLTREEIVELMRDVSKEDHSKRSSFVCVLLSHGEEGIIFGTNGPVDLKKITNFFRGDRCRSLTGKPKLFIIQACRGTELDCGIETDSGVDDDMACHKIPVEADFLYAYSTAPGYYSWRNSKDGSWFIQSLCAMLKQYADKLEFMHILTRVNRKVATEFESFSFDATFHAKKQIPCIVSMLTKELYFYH

Binder	stoichiometry N [1]	stoichiometry N [2]	stoichiometry N [3]	fold more efficient in caspase 3 inhibition (inhibition constants, Figure 1B) than bacterially-purified AcP35 [4] [fold]
B1	3	10		
B2	2 and 5		4 and 6 and 8	
B3				6
